In US20220175781A1, “CD40L COMPOSITIONS AND METHODS FOR TUNABLE REGULATION” (Obsidian Therapeutics, Inc., priority 2019, published 2022):

Experiments:
Assay type in all cases: cell-based
[1] = system: Monocyte derived dendritic cells (mDC); assay: Cytokine production in mDC-T cell co-culture (MSD); settings: for Cytokine Production IFNg / Cytokine Production IL12 / Cytokine Production TNFa: mDC-T cell co-culture 2 days
Text: (§1) In order to engage dendritic cells in an immune response, dendritic cells must be converted to a functional state by an antigen-specific CD4+ helper T cell. Activation of the dendritic cells may be followed by the activation of CD8+ T cells by the dendritic cells, a process referred to as dendritic cell licensing. Engagement of the CD40L expressed on the CD4+ cells with the CD40 on the dendritic cells can result in (i) dendritic cell stimulation-measured by expression of co-stimulatory and MHC molecules (ii) proinflammatory cytokine release (e.g. IL12, TNFα and INFγ) (iii) epitope spreading. To measure the effect of CD40L expression that is tuned by the biocircuits of the present disclosure, CD4+ T cells or Jurkat cells expressing any of the CD40L constructs described herein were co-cultured with dendritic cells.
(§2) Dendritic cell function in response to co-culture with T cells expressing CD40L was evaluated in the presence of ligand or corresponding vehicle control. Monocyte derived dendritic cells (mDC) (CD14+) were isolated from fresh blood and cultured for 5 days with IL-4 (7.5 ng/mL) and GM-CSF (20 ng/mL). The mDCs were frozen down after the 5 day culture. T cells were transduced with OT-001662 and expanded for 9 days before being frozen down. mDCs and T cells were thawed and co-cultured 1:10 DC: T cell ratio (i.e. 5×10^4 DCs: 5×10^5 T cells). mDC and T cells were co-cultured for 2 days before cells were collected for flow cytometry and supernatants were collected for cytokine analysis. For evaluation of regulated constructs, ligand (various doses of TMP) was added at the time initiating the co-culture and was kept in the co-culture for 2 days. Cytokines were analyzed by MSD after a single freeze thaw cycle. All cells were cultured in complete RPMI with 10% FBS during the course of the experiment. SR indicates stabilization ratio.

[2] = system: T cells co-cultured with monocyte derived dendritic cells (mDC); assay: CD40L levels in T cells in mDC co-culture (FACS); settings: for % CD40L+ / CD40L MFI: mDC co-culture 2 days; for SR (based on %) / SR (based on MFI): stabilization ratio
Text: as §1, §2

T cells = assay: Dose response of TMP, Bazedoxifene or Raloxifene, % CD40L positive T cells; settings: T cells
Description: T cells were transduced with OT-001662 or OT-001666. On day 4, cells were treated with increasing doses of TMP for T cells expressing OT-001662. Cells expressing OT-001666 were treated either with increasing concentrations of Bazedoxifene or Raloxifene. The data are shown in Table 30 as the percentage of CD40L positive T cells.

T cells (CD4+ and CD8+) [3] = assay: Regulation of CD40L in T cells by different drug responsive domains
T cells (CD4+ and CD8+) [4] = assay: Co-expression of CD40L and CD19 CAR on transduced T cells
Text: The results for CD4+ and CD8+ cells and total cells are shown below.

B1: OT-001662: CD40L construct with ecDHFR (M1del, R12Y, Y100I) DRD, ligand TMP (protein)
chain: MSGISLIAALAVDYVIGMENAMPWNLPADLAWFKRNTLNKPVIMGRHTWESIGRPLPGRKNIILSSQPGTDDRVTWVKSVDEAIAACGDVPEIMVIGGGRVIEQFLPKAQKLYLTHIDAEVEGDTHFPDYEPDDWESVFSEFHDADAQNSHSYCFEILERRHMIETYNQTSPRSAATGLPISMKIFMYLLTVFLITQMIGSALFAVYLHRRLDKIEDERNLHEDFVFMKTIQRCNTGERSLSLLNCEEIKSQFEGFVKDIMLNKEETKKENSFEMQKGDQNPQIAAHVISEASSKTTSVLQWAEKGYYTMSNNLVTLENGKQLTVKRQGLYYIYAQVTFCSNREASSQAPFIASLCLKSPGRFERILLRAANTHSSAKPCGQQSIHLGGVFELQPGASVFVNVTDPSQVSHGTGFTSFGLLKL
B1 was tested, and the “IL12, TMP dose response” value ([1]; mDC-T cell co-culture) was “dose responsive increases”, the “TNFα, TMP dose response” value ([1]; mDC-T cell co-culture) was “dose responsive increases” and the “Cytokine Production IFNg” value ([1]; DMSO) was 3791.2 pg/mL. For the same molecule, the “Cytokine Production IL12” value ([1]; DMSO) was 0.2535 pg/mL, the “Cytokine Production TNFa” value ([1]; DMSO) was 82.2712 pg/mL and the “Cytokine Production IFNg” value ([1]; TMP (0.1 μM)) was 7432.13 pg/mL. The “Cytokine Production IL12” value ([1]; TMP (0.1 μM)) was 0.0705 pg/mL, the “Cytokine Production TNFa” value ([1]; TMP (0.1 μM)) was 130.9627 pg/mL and the “Cytokine Production IFNg” value ([1]; TMP (0.5 μM)) was 3587.14 pg/mL. The “Cytokine Production TNFa” value ([1]; TMP (0.5 μM)) was 83.86 pg/mL, the “Cytokine Production IFNg” value ([1]; TMP (2 μM)) was 16375.2 pg/mL and the “Cytokine Production IL12” value ([1]; TMP (2 μM)) was 19.372 pg/mL. For the same molecule, the “Cytokine Production TNFa” value ([1]; TMP (2 μM)) was 248.7836 pg/mL, the “Cytokine Production IFNg” value ([1]; TMP (10 μM)) was 13539.7 pg/mL and the “Cytokine Production IL12” value ([1]; TMP (10 μM)) was 59.254 pg/mL. The “Cytokine Production TNFa” value ([1]; TMP (10 μM)) was 251.2844 pg/mL, the “levels of IFNγ” value ([1]; mDC-T cell co-culture, 10 μM TMP) was “comparable to the levels observed with the constitutive construct OT-001661” and the “IFNγ, TMP dose response” value ([1]; mDC-T cell co-culture, lower doses of TMP) was “dose responsive increase”. The “% CD40L+” value ([2]; CD4+, DMSO) was 3.71%, the “CD40L MFI” value ([2]; CD4+, DMSO) was 63.8 and the “% CD40L+” value ([2]; CD4+, TMP (0.1 μM)) was 4.32%. The “CD40L MFI” value ([2]; CD4+, TMP (0.1 μM)) was 69.8, the “% CD40L+” value ([2]; CD4+, TMP (0.5 μM)) was 3.34% and the “CD40L MFI” value ([2]; CD4+, TMP (0.5 μM)) was 61.1. For the same molecule, the “% CD40L+” value ([2]; CD4+, TMP (2 μM)) was 78%, the “CD40L MFI” value ([2]; CD4+, TMP (2 μM)) was 691 and the “% CD40L+” value ([2]; CD4+, TMP (10 μM)) was 84.1%. The “CD40L MFI” value ([2]; CD4+, TMP (10 μM)) was 1379, the “SR (based on %)” value ([2]; CD4+, TMP (0.1 μM)) was 1.16 and the “SR (based on MFI)” value ([2]; CD4+, TMP (0.1 μM)) was 1.09. The “SR (based on %)” value ([2]; CD4+, TMP (0.5 μM)) was 0.90, the “SR (based on MFI)” value ([2]; CD4+, TMP (0.5 μM)) was 0.96 and the “SR (based on %)” value ([2]; CD4+, TMP (2 μM)) was 21.02. For the same molecule, the “SR (based on MFI)” value ([2]; CD4+, TMP (2 μM)) was 10.83, the “SR (based on %)” value ([2]; CD4+, TMP (10 μM)) was 22.67 and the “SR (based on MFI)” value ([2]; CD4+, TMP (10 μM)) was 21.61. For the same molecule, the “% CD40L+” value ([2]; CD8+, DMSO) was 0.47%, the “CD40L MFI” value ([2]; CD8+, DMSO) was 57.8 and the “% CD40L+” value ([2]; CD8+, TMP (0.1 μM)) was 0.69%. For the same molecule, the “CD40L MFI” value ([2]; CD8+, TMP (0.1 μM)) was 61.5, the “% CD40L+” value ([2]; CD8+, TMP (0.5 μM)) was 0.57% and the “CD40L MFI” value ([2]; CD8+, TMP (0.5 μM)) was 54.5. For the same molecule, the “% CD40L+” value ([2]; CD8+, TMP (2 μM)) was 57.8%, the “CD40L MFI” value ([2]; CD8+, TMP (2 μM)) was 419 and the “% CD40L+” value ([2]; CD8+, TMP (10 μM)) was 74.9%. The “CD40L MFI” value ([2]; CD8+, TMP (10 μM)) was 951, the “SR (based on %)” value ([2]; CD8+, TMP (0.1 μM)) was 1.47 and the “SR (based on MFI)” value ([2]; CD8+, TMP (0.1 μM)) was 1.06. For the same molecule, the “SR (based on %)” value ([2]; CD8+, TMP (0.5 μM)) was 1.21, the “SR (based on MFI)” value ([2]; CD8+, TMP (0.5 μM)) was 0.94 and the “SR (based on %)” value ([2]; CD8+, TMP (2 μM)) was 122.98. For the same molecule, the “SR (based on MFI)” value ([2]; CD8+, TMP (2 μM)) was 7.25, the “SR (based on %)” value ([2]; CD8+, TMP (10 μM)) was 159.36 and the “SR (based on MFI)” value ([2]; CD8+, TMP (10 μM)) was 16.45. For the same molecule, the “Ligand dependent regulation of CD40L” value ([2]; mDC-T cell co-culture 2 days, various doses of TMP, CD4 and CD8+ cells) was “Ligand dependent regulation of CD40L was evident”, the “% CD40L positive T cells, dose response” value (T cells; increasing doses of TMP) was “dose dependent increase” and the “Percent of cells expressing CD40L” value (T cells; TMP Dose 0.01 μM) was 8.74%. The “Percent of cells expressing CD40L” value (T cells; TMP Dose 0.1 μM) was 13.3%, the “Percent of cells expressing CD40L” value (T cells; TMP Dose 1 μM) was 38.8% and the “Percent of cells expressing CD40L” value (T cells; TMP Dose 10 μM) was 71%. For the same molecule, the “Percent of cells expressing CD40L” value (T cells; TMP Dose 100 μM) was 73.3%, the CD40L positive (T cells (CD4+ and CD8+) [3]; All Cells, 10 uM TMP) was 89.7% and the MFI (T cells (CD4+ and CD8+) [3]; All Cells, 10 uM TMP) was 2122. The CD40L positive (T cells (CD4+ and CD8+) [3]; All Cells, DMSO) was 7.6%, the MFI (T cells (CD4+ and CD8+) [3]; All Cells, DMSO) was 140 and the CD40L positive (T cells (CD4+ and CD8+) [3]; CD4+, 10 uM TMP) was 94.4%. For the same molecule, the MFI (T cells (CD4+ and CD8+) [3]; CD4+, 10 uM TMP) was 2608, the CD40L positive (T cells (CD4+ and CD8+) [3]; CD4+, DMSO) was 8.8% and the MFI (T cells (CD4+ and CD8+) [3]; CD4+, DMSO) was 152. The CD40L positive (T cells (CD4+ and CD8+) [3]; CD8+, 10 uM TMP) was 74.9%, the MFI (T cells (CD4+ and CD8+) [3]; CD8+, 10 uM TMP) was 1070 and the CD40L positive (T cells (CD4+ and CD8+) [3]; CD8+, DMSO) was 91.8%. The MFI (T cells (CD4+ and CD8+) [3]; CD8+, DMSO) was 2.1.

B2: OT-001661: constitutively expressed full length CD40L construct (protein)
chain: MHMIETYNQTSPRSAATGLPISMKIFMYLLTVFLITQMIGSALFAVYLHRRLDKIEDERNLHEDFVFMKTIQRCNTGERSLSLLNCEEIKSQFEGFVKDIMLNKEETKKENSFEMQKGDQNPQIAAHVISEASSKTTSVLQWAEKGYYTMSNNLVTLENGKQLTVKRQGLYYIYAQVTFCSNREASSQAPFIASLCLKSPGRFERILLRAANTHSSAKPCGQQSIHLGGVFELQPGASVFVNVTDPSQVSHGTGFTSFGLLKL
In the case of B2, the “Cytokine Production IFNg” value ([1]; DMSO) is reported as 12973 pg/mL, the “Cytokine Production IL12” value ([1]; DMSO) is reported as 58.935 pg/mL and the “Cytokine Production TNFa” value ([1]; DMSO) is reported as 456.3242 pg/mL. For the same molecule, the “Cytokine Production IFNg” value ([1]; TMP) was 10939.9 pg/mL, the “Cytokine Production IL12” value ([1]; TMP) was 86.229 pg/mL and the “Cytokine Production TNFa” value ([1]; TMP) was 440.0804 pg/mL. For the same molecule, the “% CD40L+” value ([2]; CD4+, DMSO) was 68.1%, the “CD40L MFI” value ([2]; CD4+, DMSO) was 579 and the “% CD40L+” value ([2]; CD4+, TMP) was 68.3%. The “CD40L MFI” value ([2]; CD4+, TMP) was 580, the “% CD40L+” value ([2]; CD8+, DMSO) was 62.2% and the “CD40L MFI” value ([2]; CD8+, DMSO) was 495. The “% CD40L+” value ([2]; CD8+, TMP) was 62.3%, the “CD40L MFI” value ([2]; CD8+, TMP) was 499 and the CD40L positive (T cells (CD4+ and CD8+) [3]; All Cells, Ligand N/A) was 98%. The MFI (T cells (CD4+ and CD8+) [3]; All Cells, Ligand N/A) was 20451, the CD40L positive (T cells (CD4+ and CD8+) [3]; CD4+, Ligand N/A) was 98.7% and the MFI (T cells (CD4+ and CD8+) [3]; CD4+, Ligand N/A) was 24489. For the same molecule, the CD40L positive (T cells (CD4+ and CD8+) [3]; CD8+, Ligand N/A) was 97.8%, the MFI (T cells (CD4+ and CD8+) [3]; CD8+, Ligand N/A) was 14352 and the “Percent of Cells co-expressing CD40L and CD19 CAR” value (T cells (CD4+ and CD8+) [4]; All Cells) was 0%. The “Percent of Cells co-expressing CD40L and CD19 CAR” value (T cells (CD4+ and CD8+) [4]; CD4+) was 0% and the “Percent of Cells co-expressing CD40L and CD19 CAR” value (T cells (CD4+ and CD8+) [4]; CD8+) was 0%.
